Assay [1] addresses T1, coagulation Factor VIIa (FVIIa), recombinant (UniProt P08709 61-466).
T1 construct: mature
T1 sequence (looked up): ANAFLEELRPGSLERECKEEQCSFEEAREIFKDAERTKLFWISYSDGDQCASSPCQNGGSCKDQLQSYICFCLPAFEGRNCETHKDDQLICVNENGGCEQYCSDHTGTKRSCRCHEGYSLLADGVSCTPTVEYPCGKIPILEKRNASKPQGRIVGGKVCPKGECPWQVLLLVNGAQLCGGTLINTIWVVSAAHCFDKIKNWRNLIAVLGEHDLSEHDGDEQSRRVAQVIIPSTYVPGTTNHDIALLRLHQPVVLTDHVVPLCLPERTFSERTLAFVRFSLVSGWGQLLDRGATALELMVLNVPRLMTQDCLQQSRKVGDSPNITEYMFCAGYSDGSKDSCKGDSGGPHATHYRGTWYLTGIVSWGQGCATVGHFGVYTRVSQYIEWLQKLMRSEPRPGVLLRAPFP
In words: SPR (Biacore T100), rSimukunin immobilized on CM5.

In assay [2] the target is T2, coagulation Factor X (FX), zymogen precursor of FXa (UniProt P00742 41-488).
T2 construct: mature; also called zymogenic form of FX
T2 sequence (P00742 41-488 limits assumed): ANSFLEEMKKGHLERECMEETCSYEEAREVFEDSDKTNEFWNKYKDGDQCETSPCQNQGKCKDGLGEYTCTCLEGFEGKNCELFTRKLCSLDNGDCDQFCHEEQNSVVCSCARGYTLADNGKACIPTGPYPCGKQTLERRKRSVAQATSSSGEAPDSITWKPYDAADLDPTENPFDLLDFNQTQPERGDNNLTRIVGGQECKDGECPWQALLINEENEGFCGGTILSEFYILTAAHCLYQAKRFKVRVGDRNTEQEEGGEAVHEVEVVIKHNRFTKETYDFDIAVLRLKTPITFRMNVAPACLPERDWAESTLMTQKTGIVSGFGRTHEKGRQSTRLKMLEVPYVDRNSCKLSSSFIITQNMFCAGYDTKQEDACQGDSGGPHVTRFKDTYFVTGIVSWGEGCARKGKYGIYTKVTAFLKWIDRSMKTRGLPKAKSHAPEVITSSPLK
In words: SPR (Biacore T100), rSimukunin immobilized on CM5.

The target of assay [3] is T3, coagulation Factor XIIIa (FXIIIa) (UniProt P00488 39-732, limits assumed).
T3 construct: mature
T3 sequence (looked up): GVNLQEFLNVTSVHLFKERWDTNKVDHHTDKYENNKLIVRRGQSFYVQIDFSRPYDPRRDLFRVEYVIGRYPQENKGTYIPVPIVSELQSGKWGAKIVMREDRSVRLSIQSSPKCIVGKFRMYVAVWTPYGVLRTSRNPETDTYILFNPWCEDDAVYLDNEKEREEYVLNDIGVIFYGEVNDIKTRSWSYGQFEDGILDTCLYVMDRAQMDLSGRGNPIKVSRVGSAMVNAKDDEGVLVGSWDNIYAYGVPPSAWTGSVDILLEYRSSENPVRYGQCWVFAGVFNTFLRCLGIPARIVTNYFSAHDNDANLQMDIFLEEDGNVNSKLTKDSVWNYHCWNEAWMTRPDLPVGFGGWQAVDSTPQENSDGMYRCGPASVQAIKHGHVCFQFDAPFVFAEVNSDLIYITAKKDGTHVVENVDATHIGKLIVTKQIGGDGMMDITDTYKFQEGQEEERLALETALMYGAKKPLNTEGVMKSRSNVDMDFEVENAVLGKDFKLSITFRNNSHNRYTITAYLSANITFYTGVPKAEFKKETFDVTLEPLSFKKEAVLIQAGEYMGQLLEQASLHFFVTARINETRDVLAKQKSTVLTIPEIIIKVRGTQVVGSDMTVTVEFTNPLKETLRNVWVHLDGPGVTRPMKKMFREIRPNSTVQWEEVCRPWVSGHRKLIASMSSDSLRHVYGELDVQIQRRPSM
As to the kind of experiment: SPR (Biacore T100), rSimukunin immobilized on CM5.

Another assay concerns the target T4, chymase (human) (human, UniProt P23946 22-247).
T4 construct: mature
T4 sequence (looked up): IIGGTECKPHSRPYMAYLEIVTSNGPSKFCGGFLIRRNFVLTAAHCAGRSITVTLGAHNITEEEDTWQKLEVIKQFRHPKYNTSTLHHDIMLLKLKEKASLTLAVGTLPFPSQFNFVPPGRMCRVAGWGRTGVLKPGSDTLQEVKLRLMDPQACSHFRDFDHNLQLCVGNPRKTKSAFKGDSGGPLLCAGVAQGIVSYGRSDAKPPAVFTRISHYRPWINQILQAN
In words: enzyme inhibition assay, fluorogenic peptide substrate, 500 nM rSimukunin, 1.8 nM enzyme. Here is the method:
Serine protease inhibition assays. rSimukunin (500 nM) was first pre-incubated with each enzyme for 10 min before the addition of the corresponding substrate. The amount of enzyme used in the assays was the lowest possible to give a linear substrate hydrolysis rate in the assays (r²>0.95). After incubation for 5 min at 30° C., substrate hydrolysis rate was followed in a Tecan Infinite M200 96-well plate fluorescence reader (Tecan group Ltd, Switzerland) using 365 nm excitation and 450 nm emission wavelength with a cutoff at 435 nm for 20 min at 30° C. Wells without enzyme were used to monitor spontaneous substrate hydrolysis and protease contamination in the inhibitor preparation. A t-test was used for the statistical analysis of the observed inhibition in the presence of 500 nM rSimukunin and when p<0.05, it was considered as statistically significant.
All enzymes used were of human origin and of the highest available purity. […]

The target in assay [4] is T5, elastase (human; for SPR purified from human sputum) (human, UniProt P08246 30-267).
T5 construct: mature
T5 sequence (looked up): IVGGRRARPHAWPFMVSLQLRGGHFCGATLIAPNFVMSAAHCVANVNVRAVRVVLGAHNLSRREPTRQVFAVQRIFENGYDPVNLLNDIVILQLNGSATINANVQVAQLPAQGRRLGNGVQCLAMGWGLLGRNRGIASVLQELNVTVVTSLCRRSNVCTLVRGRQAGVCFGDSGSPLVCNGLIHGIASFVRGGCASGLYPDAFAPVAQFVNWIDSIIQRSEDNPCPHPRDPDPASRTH
As to the kind of experiment: SPR (Biacore T100), rSimukunin immobilized on CM5, elastase as analyte, 1:1 Langmuir fit. As to the method:
(§1) Data were fitted using a […] binding model (Langmuir). RU: resonance units.
(§2) Surface plasmon resonance (SPR) assays. SPR experiments were conducted using a T100 instrument (Biacore Inc., Uppsala, Sweden) following the manufacturer's instructions. Sensor CM5, amine coupling reagents, and buffers were also purchased from Biacore Inc. (Piscataway, N.J., USA). IBS P (10 mM Hepes, pH 7.4, 150 mM NaCl, and 0.005% (v/v) P20 surfactant) was used as the running buffer for all SPR experiments, which were carried out as previously described (Albrecht et al., 1983, Hoppe Seylers Z Physiol Chem; 364:1697-1702). For analytes, FVIIa (recombinant) was purchased from American Diagnostica (Stamford, Conn.); FX, FXa (human, bovine, mouse), DEGR-FXa (human), des-Gla-FXa (human), FIXa, FXIa, FXIIIa, and thrombin were purchased from Haematologic Technologies, Inc. (Essex Junction, Vt.); elastase (purified from human sputum) was purchased from Molecular Innovations, Inc. (Novi, Mich.). All enzymes were of the highest available purity. For immobilization and kinetic analysis, rSimukunin (10 μg/ml) in acetate buffer pH 5.0 was immobilized over a CM5 sensor via amine coupling, resulting in a final immobilization of 475.3 RU. Kinetic experiments were carried out with a contact time of 180 seconds at a flow rate of 30 μl/minute at 25° C. rSimukunin-FXa complex dissociation was monitored for 1800 seconds, and the sensor surface was regenerated by a pulse of 30 seconds of 20 mM HCl at 30 μl/minute. In other experiments, other coagulation factors or enzymes were used as analytes. Blank flow cells were used to subtract the buffer effect on sensorgrams.

In assay [5] the target is T6, cathepsin G (human) (human, UniProt P08311 21-244).
T6 construct: mature
T6 sequence (looked up): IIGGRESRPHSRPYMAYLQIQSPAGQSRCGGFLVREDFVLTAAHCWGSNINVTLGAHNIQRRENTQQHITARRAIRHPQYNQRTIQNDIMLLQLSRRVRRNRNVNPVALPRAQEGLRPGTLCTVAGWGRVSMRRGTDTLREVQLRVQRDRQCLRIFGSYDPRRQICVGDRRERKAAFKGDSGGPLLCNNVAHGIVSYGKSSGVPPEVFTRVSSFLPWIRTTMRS
In words: calculated by Cheng-Prusoff from the enzyme-inhibition IC50 and the substrate Km (250 uM general chymotrypsin substrate). Here is the method: (§3) The Kₘ for the elastase substrate was 38.5±3.3 μM, and the estimated Kᵢ was ˜0.65 nM. For FXa the substrate Kₘ was 161.6±17.4 μM, and the estimated Kᵢ was ˜2.1 nM. For Cathepsin G the Kₘ was 188±20 μM, and the Kᵢ was 100 nM. A general chymotrypsin substrate was used to assess Cathepsin G activity; as this substrate is not optimized for Cathepsin G it is likely that our measurement of the Kᵢ underestimates the effect of rSimukunin. Further studies of the effect of rSimukunin on Cathepsin G will be performed.
(§4) Enzymes, at the concentrations given in Table 1, were incubated with the indicated concentration of rSimukunin for five minutes at 30° C., followed by addition of substrate (250 μM final concentration). The amount of enzyme used in the assays was the lowest possible to give a linear substrate hydrolysis rate in the assays (r2>0.95). Substrate hydrolysis was followed in a Tecan Infinite M200 96-well plate fluorescence reader (Tecan group Ltd, Switzerland) using 365 nm excitation and 450 nm emission wavelength with a cutoff at 435 nm for 20 min at 30° C. Wells without enzyme were used to monitor spontaneous substrate hydrolysis and protease contamination in the inhibitor preparation. All experiments were performed in triplicate (for each enzyme and each concentration of the inhibitor). […]

The target of assay [6] is T5, elastase (human; for SPR purified from …). As to the kind of experiment: cell-based or functional assay.
The next assay addresses skin β-tryptase (human) (human, UniProt Q15661 31-275). In words: cell-based or functional assay.
For a further assay, the target named is plasmin (human) (human, UniProt P00747 97-810). As to the kind of experiment: cell-based or functional assay.
Sequence of plasmin (human) (P00747 97-810): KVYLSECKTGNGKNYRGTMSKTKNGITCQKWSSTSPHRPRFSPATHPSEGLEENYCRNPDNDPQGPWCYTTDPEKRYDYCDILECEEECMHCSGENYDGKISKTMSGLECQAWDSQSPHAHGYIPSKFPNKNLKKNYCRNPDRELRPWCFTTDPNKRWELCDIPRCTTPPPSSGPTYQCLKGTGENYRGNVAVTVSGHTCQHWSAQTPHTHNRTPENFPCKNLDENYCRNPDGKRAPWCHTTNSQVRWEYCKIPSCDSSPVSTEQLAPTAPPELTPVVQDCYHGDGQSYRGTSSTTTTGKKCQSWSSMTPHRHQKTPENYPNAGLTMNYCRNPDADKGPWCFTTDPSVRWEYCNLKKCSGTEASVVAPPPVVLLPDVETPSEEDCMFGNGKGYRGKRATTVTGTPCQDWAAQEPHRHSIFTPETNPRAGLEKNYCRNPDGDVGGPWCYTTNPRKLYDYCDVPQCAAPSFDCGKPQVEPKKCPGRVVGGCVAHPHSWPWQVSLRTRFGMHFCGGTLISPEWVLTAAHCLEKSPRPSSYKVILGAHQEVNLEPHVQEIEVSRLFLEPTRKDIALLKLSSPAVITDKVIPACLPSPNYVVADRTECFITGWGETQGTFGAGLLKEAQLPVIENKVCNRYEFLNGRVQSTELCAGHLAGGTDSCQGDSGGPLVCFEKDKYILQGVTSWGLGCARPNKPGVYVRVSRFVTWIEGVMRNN
Assay [7] addresses coagulation Factor XIa (FXIa) (human, UniProt P03951 19-625). In words: cell-based or functional assay.
Assay [8] addresses T7, human activated coagulation factor X (FXa) (human, UniProt P00742 41-179; P00742 235-488). In words: cell-based or functional assay.
Assay [9] concerns the target T6, cathepsin G (human). As to the kind of experiment: cell-based or functional assay.
For assay [10], the target named is trypsin (sequencing grade, Roche) (human). In words: cell-based or functional assay.
Sequence of trypsin (sequencing grade, Roche) (human) (P00760 24-246): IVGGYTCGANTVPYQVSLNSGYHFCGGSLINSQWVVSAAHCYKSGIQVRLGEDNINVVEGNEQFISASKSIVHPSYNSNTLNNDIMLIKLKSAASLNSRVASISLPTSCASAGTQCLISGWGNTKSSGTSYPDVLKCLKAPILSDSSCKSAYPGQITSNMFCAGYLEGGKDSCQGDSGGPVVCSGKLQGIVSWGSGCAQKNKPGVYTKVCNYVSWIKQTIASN
A further assay deals with kallikrein (human) (human, UniProt P03952 20-638, limits assumed). As to the kind of experiment: cell-based or functional assay.
Sequence of kallikrein (human) (P03952 20-638 limits assumed): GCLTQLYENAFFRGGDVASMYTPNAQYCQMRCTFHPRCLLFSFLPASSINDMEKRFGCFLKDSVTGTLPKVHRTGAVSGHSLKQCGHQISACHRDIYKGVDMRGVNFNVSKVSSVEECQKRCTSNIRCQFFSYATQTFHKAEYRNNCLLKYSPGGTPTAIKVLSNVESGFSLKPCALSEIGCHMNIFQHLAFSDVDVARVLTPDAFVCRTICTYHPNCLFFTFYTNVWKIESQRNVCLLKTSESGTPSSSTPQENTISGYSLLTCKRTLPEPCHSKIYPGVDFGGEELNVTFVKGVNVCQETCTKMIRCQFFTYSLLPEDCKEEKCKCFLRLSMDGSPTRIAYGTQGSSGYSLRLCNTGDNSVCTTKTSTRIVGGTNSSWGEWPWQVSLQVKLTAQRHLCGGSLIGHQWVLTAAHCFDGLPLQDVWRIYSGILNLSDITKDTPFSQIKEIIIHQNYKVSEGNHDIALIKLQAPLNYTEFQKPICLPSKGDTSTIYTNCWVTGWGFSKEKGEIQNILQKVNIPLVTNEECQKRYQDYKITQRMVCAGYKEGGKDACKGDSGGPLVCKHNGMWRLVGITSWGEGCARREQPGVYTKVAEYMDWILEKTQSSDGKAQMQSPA
The target of assay [11] is T5, elastase (human; for SPR purified from …). In words: calculated by Cheng-Prusoff from the enzyme-inhibition IC50 and the substrate Km (250 uM substrate). As to the method:
as §3, §4

The target of assay [12] is T7, human activated coagulation factor X …. The assay is described as above. As to the method: as §3, §4
For assay [13] the target is unchanged. In words: SPR (Biacore T100), rSimukunin immobilized on CM5, FXa as analyte, 1:1 Langmuir fit. As to the method: as §1, §2

The source of these data is patent US20150038419A1 (US Dept. of Health and Human Services, published 2015).

T7 sequence (P00742 41-179 limits assumed, chain 1 of 2): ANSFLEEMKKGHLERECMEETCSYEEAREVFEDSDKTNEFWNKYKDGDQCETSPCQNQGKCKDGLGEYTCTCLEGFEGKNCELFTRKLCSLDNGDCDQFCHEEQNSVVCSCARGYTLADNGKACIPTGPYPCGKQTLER
T7 sequence (P00742 235-488 limits assumed, chain 2 of 2): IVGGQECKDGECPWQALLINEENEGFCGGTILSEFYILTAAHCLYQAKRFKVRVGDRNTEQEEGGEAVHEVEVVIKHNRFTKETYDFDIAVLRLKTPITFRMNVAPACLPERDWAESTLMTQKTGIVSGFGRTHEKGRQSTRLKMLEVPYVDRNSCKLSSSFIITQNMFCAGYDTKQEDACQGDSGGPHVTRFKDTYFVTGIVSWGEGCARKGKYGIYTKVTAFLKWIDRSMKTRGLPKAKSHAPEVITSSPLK
Sequence of coagulation Factor XIa (FXIa) (P03951 19-625 limits assumed): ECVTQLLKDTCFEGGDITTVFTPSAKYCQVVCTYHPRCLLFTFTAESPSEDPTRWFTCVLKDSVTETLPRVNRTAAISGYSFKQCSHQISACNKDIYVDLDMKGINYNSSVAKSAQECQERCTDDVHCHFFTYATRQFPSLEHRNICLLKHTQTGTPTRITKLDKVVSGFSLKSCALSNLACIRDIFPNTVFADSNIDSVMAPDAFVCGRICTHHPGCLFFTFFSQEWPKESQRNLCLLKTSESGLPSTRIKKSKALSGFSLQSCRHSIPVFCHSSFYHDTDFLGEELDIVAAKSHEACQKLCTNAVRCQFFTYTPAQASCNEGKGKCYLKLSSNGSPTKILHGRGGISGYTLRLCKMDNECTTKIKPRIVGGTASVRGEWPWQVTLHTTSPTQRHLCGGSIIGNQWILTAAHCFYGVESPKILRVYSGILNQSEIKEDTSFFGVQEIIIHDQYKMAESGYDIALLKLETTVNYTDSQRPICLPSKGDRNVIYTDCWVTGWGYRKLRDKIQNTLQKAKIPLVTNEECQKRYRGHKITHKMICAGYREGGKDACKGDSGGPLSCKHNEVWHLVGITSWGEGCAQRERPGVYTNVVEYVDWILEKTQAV
Sequence of skin β-tryptase (human) (Q15661 31-275): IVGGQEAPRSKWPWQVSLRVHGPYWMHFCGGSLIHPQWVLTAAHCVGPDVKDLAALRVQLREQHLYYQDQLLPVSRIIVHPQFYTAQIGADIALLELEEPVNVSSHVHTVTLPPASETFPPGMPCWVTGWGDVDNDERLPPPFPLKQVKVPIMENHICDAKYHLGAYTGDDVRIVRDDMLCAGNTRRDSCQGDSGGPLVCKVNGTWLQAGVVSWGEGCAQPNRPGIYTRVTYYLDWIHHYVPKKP

B1: recombinant Simukunin (rSV-66), Simulium vittatum SV-66 without signal peptide, His-tagged, expressed in E. coli (other)
chain: QENVCNLPVDEGVCRALFKRFYYEPATDSCKEFYYGGCEGNGNRFKSKKECILKCQKNKQLIKTRKRKPKKTTKPPIPIISLD
notes: also called rSimukunin; WT rSimukunin; not shown: His tag(s) from vector pET-30 Ek/LIC ('C-terminal double His tags')
For the molecule B1, the binding result in assay [1] is recorded as “no binding (tested: 200 nM)”; in assay [2], “no binding (tested: 200 nM)”; in assay [3] it was “no binding (tested: 200 nM)”; with chymase (human), “binds”. Also, the Kd in assay [4] turned out to be 0.4 nM; in [13] it was 3.07 nM. Moreover, the koff in assay [4] worked out at 0.0173 s⁻¹; in assay [13], 0.000303 s⁻¹. The kon in assay [4] came out at 4.3e+07 M⁻¹ s⁻¹; in assay [13], 98700 M⁻¹ s⁻¹. For the same molecule, the Ki is 100 nM with cathepsin G (human) [5], roughly 0.65 nM in assay [11] and roughly 2.1 nM in [12]. Moreover, the “Ratio of IC50 to enzyme concentration” value is 27.2 in [6]; 6680 with skin β-tryptase (human); 161 with plasmin (human); 945 in assay [7]; 52 in assay [8]; 32.5 with cathepsin G (human) [9]. In addition, the “Ratio of IC50 to enzyme concentration” value is 3790 in assay [10] and 1150 with kallikrein (human).
